This note sets out measurements from the nanobody polyreactivity screen of Harvey et al. (2022).

The data set can be described thus: yeast display, Sf9 membrane polyspecificity reagent, FACS + sequencing; frameworks hold sequencing errors. In short, it runs like this: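 Using colony PCR, genes from sorted yeast display clones were amplified, then sequenced on MiSeq at 2 × 250 and filtered by CDR length. The clones had been stained with 10% biotinylated, detergent-solubilized Sf9 membrane reagent for 1 hour at 4 °C and sorted by FACS into low and high (top ~1%) gates on anti-HA and streptavidin fluorescence. Polyreactivity labels come from the gate of origin.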
Turning to “QVQLVESGGGLVQAGGSLRLSCAASGRIFKYYAMGWYRQAPGTERELVAAITSGGSTYYADSVKGRFTISRDNAKNTVYLQMNSLKPEDTAVYYCNADGYLSYAFDYWGQGTQVTVSS”, the “polyreactivity (PSR sort gate)” value was “low polyreactivity”.

For “QVQLVESGGGLVQAGGSLRLSCAASGRIFKYYGMGWYRQAPGKERELVAAITRGDSTNYADSVKGRFTISRDNAKNTVYLQMNSLKPEDTAVYYCNVGTRRGYDYWGQGTQVTVSS”, the “polyreactivity (PSR sort gate)” value was “high polyreactivity”.

As to “QVQLVESGGGLVQAGGSLRLSCAASGRIFKYYTMGWYRQAPGKERELVARISSSGGSTYYADSVKGRFTISRDNAKNTVYLQMNSLKPEDTAVYYCNTRAAYHQTTHKYERDYWGQGSQVTVSS”, the “polyreactivity (PSR sort gate)” value is on record as “low polyreactivity”.

Take “QVQLVESGGGLVQAGGSLRLSCAASGRIFLFYAMGWYRQAPGKERELVAAISSTDDTYYADSVKGRFTISRDNAKNTVYLQMNSLKPEDTAVYYSAAYSIISQSEMYYRGQGTQVTVSS”: the “polyreactivity (PSR sort gate)” value is “low polyreactivity”.

As to “QVQLVESGGGLVQAGGSLRLSCAASGRIFLFYAMGWYRQAPGKERELVAGIRSGGSTNYADSVKGRFTISRDNAKNTVYLQMNSLKPEDTAVYYCAAASYFVYPRLEGYWGQGTQVTVSS”, the “polyreactivity (PSR sort gate)” value is given as “low polyreactivity”.

For “QVQLVESGGGLVQAGGSLRLSCAASGRIFLGNAMGWYRQAPGKERELVAAIDASGGSTYYADSVKGRFTISRDNAKNTVYLQMNSLKPEDTAVYYCAADRGFLRSFAPGNMDYWGQGTQVTVSS”, the “polyreactivity (PSR sort gate)” value is on record as “low polyreactivity”.

In the case of “QVQLVESGGGLVQAGGSLRLSCAASGRIFLGNAMGWYRQAPWKESELVAAITNGGGSTSYADSVKGRFTISRDNAKNTVYLQMNSLKPEDTAVYYCARGYKKSVQRFEYRGQGTQVTVSS”, the “polyreactivity (PSR sort gate)” value is “high polyreactivity”.

“QVQLVESGGGLVQAGGSLRLSCAASGRIFLGNTMGCYRQAPGKERELVAAISKRGGSTYYVDSVKGRFTISRDNAKNTVYLQMNSLKPEDTAVYYCNAGPLYSGVYSGYYWGQGTQVTVSS”: the “polyreactivity (PSR sort gate)” value is “high polyreactivity”.

With “QVQLVESGGGLVQAGGSLRLSCAASGRIFLGNVMGWYRQAPGKERELVAAISWSGGSTYADSVKGRFTISRDNAKNTVYLQMNSLKPEDTAVYYCNAELGSYDKDYDYWGQGTQVTVSS”, the “polyreactivity (PSR sort gate)” value is on record as “low polyreactivity”.

In the case of “QVQLVESGGGLVQAGGSLRLSCAASGRIFLGYAMGRYRQAPGKERELVAAITFSGGSTYYADSVKGRFTISRDNAKNTVYLQMNSLKPEDTAVYYCAAPRLRRTYPRNRYDYWGQGTQVTVSS”, the “polyreactivity (PSR sort gate)” value is “low polyreactivity”.

Turning to “QVQLVESGGGLVQAGGSLRLSCAASGRIFLGYAMGWYRQPPGKVSELVAAINSVASTNYADSVKGRFTISRDNAKNTVYLQMNSLKPEDTAVYYCAAVYFLVQSDLPAYDYWGQGTLVTVSS”, the “polyreactivity (PSR sort gate)” value was “low polyreactivity”.

Consider “QVQLVESGGGLVQAGGSLRLSCAASGRIFLKYAMGWYRHAPGKERELVAAISLSTGSTYYADSVKGRFTISRDNAKNTVYLQMNSLKAEDTAVYYCAATRKYRYVYWGQGTQGTVSS”, for which the “polyreactivity (PSR sort gate)” value is given as “high polyreactivity”.

For “QVQLVESGGGLVQAGGSLRLSCAASGRIFLKYTMGWYRQAPGKERELVAAISRGGSTYYADSVKGRFTISRDNAKNTVYLQMNSLKPEDTAVYYCAARRSRPTYYSTGVNYWGQGTQVTVSS”, the “polyreactivity (PSR sort gate)” value is “high polyreactivity”.

On to “QVQLVESGGGLVQAGGSLRLSCAASGRIFLPYAMGWYRQAPGKERELVAAIDTNGGSTYYADSVKGRFTISRDNAKNTVYLQMNSLKPEDSAVYYCAAEVYDYTYVVTFLYDYWGQGTQVTVSS”, for which the “polyreactivity (PSR sort gate)” value is “high polyreactivity”.

Consider “QVQLVESGGGLVQAGGSLRLSCAASGRIFLPYAMGWYRQAPGKERELVAAITQSGVITSYADSVKGRFTISRDNAKNTVYLQMNSLKPVDTAVYYCATVRTVIVFRFPYSYGYWGQGTQVTVSS”, for which the “polyreactivity (PSR sort gate)” value is on record as “high polyreactivity”.

As to “QVQLVESGGGLVQAGGSLRLSCAASGRIFLRNAMGWYRQAPGKERELVAAISRRGATTYYADSVKGRFTISRDNAKNTVYLQMNSLKPEDTAVYYCAKRVWETDYDYWGQGTQVTVSS”, the “polyreactivity (PSR sort gate)” value is reported as “high polyreactivity”.

For the sequence “QVQLVESGGGLVQAGGSLRLSCAASGRIFLRNAMGWYRQAPGKERELVAGINSGGSTYYADSVKGRFTISRDNAKNTVYLQMNSLKPEDTAVYYCAADDGNFLSEDRDSYYGYDYWGQGTQVTVSS”, the “polyreactivity (PSR sort gate)” value is “low polyreactivity”.

Turning to “QVQLVESGGGLVQAGGSLRLSCAASGRIFLSYAMGWYRQAPGKERELVAGITWNGGSTYYADSVKGRFTISRDNAKNTVYLQMNSLKPEDTAVFYCAADYFGFSYAGYNYWGQGTQVTVSS”, the “polyreactivity (PSR sort gate)” value was “low polyreactivity”.

As for “QVQLVESGGGLVQAGGSLRLSCAASGRIFLSYAMGWYRQAPGKERELVAGITWNGGSTYYADSVKGRFTISRDNAKNTVYLQMNSLKPEDTAVYYCAATRFSYVFPYRYDYWGQGTQVTVSS”, the “polyreactivity (PSR sort gate)” value is “low polyreactivity”.

As to “QVQLVESGGGLVQAGGSLRLSCAASGRIFLTYAMGWYRQAPGKERELVAAITRRGGRTNYADSVKGRFTISRDNAKNTVYLQMNSLKPEDTAVYYCAKSPWPSHLDYDYWGQGTQVTVSS”, the “polyreactivity (PSR sort gate)” value was “low polyreactivity”.

As to “QVQLVESGGGLVQAGGSLRLSCAASGRIFLTYVMGWYRQAPGKERELVAAITSSGGTTYYADSVKGRFTISRDNAKNTVYLQMKSLKPEDTAVYYCNAGSSYQYGPRYNYWGQGTQVTVSS”, the “polyreactivity (PSR sort gate)” value was “low polyreactivity”.

Take “QVQLVESGGGLVQAGGSLRLSCAASGRIFLVYAMGRYRQAPGKERELVAAITSDGRTYYADSVKGRFTISRDNAKNTVYLQMNSLKPEDTAVYYCAADRYGAGYLYWPYDYWGQGTQVTVSS”: the “polyreactivity (PSR sort gate)” value is on record as “low polyreactivity”.

With “QVQLVESGGGLVQAGGSLRLSCAASGRIFLYNAMGSYRQAPGKVRELVASISSGVTTNYADSVKGRFTISRDNAKKTVYLQMNSLKPEDTAVYYCAADGQYSVIVKYDSWGQGTQVTVSS”, the “polyreactivity (PSR sort gate)” value is on record as “low polyreactivity”.

For “QVQLVESGGGLVQAGGSLRLSCAASGRIFLYNAMGWYRQAPGKERELVAAITASGGTTYYADSVKGRFTISRDNAKNTVYLQMNSLKPEDNAVYYCNAYSYSGERYYWGQGTQVTVSS”, the “polyreactivity (PSR sort gate)” value is recorded as “high polyreactivity”.

Turning to “QVQLVESGGGLVQAGGSLRLSCAASGRIFLYNVMGWYRQAPGKERELVAAISWSGTRTYYADSVKGRFTISRDNAKNTVYLQMNSLKPEDTAVYYCNACRYYRHDYWGQGTQVTVSS”, the “polyreactivity (PSR sort gate)” value is given as “low polyreactivity”.

As for “QVQLVESGGGLVQAGGSLRLSCAASGRIFLYYAMGWYRQAPGKERELVATISSGGSTTYADSVKGRFTISRDNAKNTVYLQMNSLKPEDTAVYYCATQVPGYSGRYDYWGQGTQVTVSS”, the “polyreactivity (PSR sort gate)” value was “low polyreactivity”.

As to “QVQLVESGGGLVQAGGSLRLSCAASGRIFLYYTMGWYRQAPGKERELVADITWRGGYTYYADSVKGRFTISRDNAKNTVYLQMNSLKPQDTAVYYFNAVSVSYKRSDYWGQGTQVTVSS”, the “polyreactivity (PSR sort gate)” value is given as “low polyreactivity”.

Consider “QVQLVESGGGLVQAGGSLRLSCAASGRIFNAYAMGWYRQAPGKERELVAAITDDGGTNYADSVKGRFTISRDNAKNTVYLQMNSLKPEDTAVYYCAATYLIGYYYVWEYDYWGQGTQVTVSS”, for which the “polyreactivity (PSR sort gate)” value is “low polyreactivity”.

In the case of “QVQLVESGGGLVQAGGSLRLSCAASGRIFNAYAMGWYRQAPGKERELVATISWRTGSTYYADSVKGRFTISRDNAKNTVYLQINSLKPEDTAVYYCNAKVGSYGAQGYRFAYNYWGQGTQVTVSS”, the “polyreactivity (PSR sort gate)” value is given as “high polyreactivity”.

Take “QVQLVESGGGLVQAGGSLRLSCAASGRIFNDYTMGWYRPAPGKERELVAAITNRDTSTSYADSVKGRFTISRDNAKNTVYLQMNSLKPEDTAVYYCNAQQVIVVYRPGDYWGQGTQVTVSS”: the “polyreactivity (PSR sort gate)” value is reported as “low polyreactivity”.

As to “QVQLVESGGGLVQAGGSLRLSCAASGRIFNFYAMGWYRQAPGKEWELVAAITNGGGTKYADSVKGRFTISRDNAKNTVYLQMNSLKPEDTAVYYCAARYYRRQRGQTSHSRFGYWGQGTQVTVSS”, the “polyreactivity (PSR sort gate)” value is recorded as “high polyreactivity”.

Turning to “QVQLVESGGGLVQAGGSLRLSCAASGRIFNIYAMGWYRQAPGKERELVAAISVSGTRTYYADSVKGRFTISRDNAKNTVYLQMNSLKPEDTAVYYCAADSYGGDWTEHMYYWGQGTQVTVSS”, the “polyreactivity (PSR sort gate)” value was “low polyreactivity”.

Regarding “QVQLVESGGGLVQAGGSLRLSCAASGRIFNKYVMGWYRQAPGKERELVAAISGRGGSTYYADYVKGRFTISRDNAKNTVYLQMNSLKPEDTAVYYCAARYGYYTSDYKYYDWGQGTQVTVSS”, the “polyreactivity (PSR sort gate)” value was “high polyreactivity”.

As to “QVQLVESGGGLVQAGGSLRLSCAASGRIFNPYAMGWYRKAPGKERELVAAISRGGRTYYADSVKGRFTISRDNAKNTVYLQMNSLKPEDTAVYYCAKLPSRRWAYDYWGQGTQVTVSS”, the “polyreactivity (PSR sort gate)” value was “high polyreactivity”.

On to “QVQLVESGGGLVQAGGSLRLSCAASGRIFNQYGMGWYRPAPGKERELVAAIRSGDSTNYADSVKGRFTISRDNAKNTVELQMNSLKPEDTAVYYCARDRPGDYAGYDYWGQGTQVTVSS”, for which the “polyreactivity (PSR sort gate)” value is on record as “low polyreactivity”.

In the case of “QVQLVESGGGLVQAGGSLRLSCAASGRIFNQYGMGWYRPAPGKERELVAAIRYGDSTNYADSVKGRFTISRDNAKNTVYLQMNSLKPEDTAVYYCARDPAGDYAGYDYWGQGTQVTVSS”, the “polyreactivity (PSR sort gate)” value is “low polyreactivity”.

Take “QVQLVESGGGLVQAGGSLRLSCAASGRIFNRYAMGWYRQAPGKEREFVAGITWNGGSTYYADSVKGRFTISRDNAKNTVYLQMNSLKPEDTAVYYCAATHYYYGTSRYDYWGQGTQVTVSS”: the “polyreactivity (PSR sort gate)” value is “high polyreactivity”.

Take “QVQLVESGGGLVQAGGSLRLSCAASGRIFNSYAMGWSRQAPGNERELVAAISSGGSTYYADSVKGRFTISRDNAKNTVYLQMNSLKPEDTAVYYCAARIWTGRGRKLGYGYDYWGQGTQVTVSS”: the “polyreactivity (PSR sort gate)” value is recorded as “low polyreactivity”.

In the case of “QVQLVESGGGLVQAGGSLRLSCAASGRIFNVYAMGWYRPAPGTERELVAAIRRRGDRTYYADSVKGRFTLSRDNAKNTVYLQMNSLNPEDTADYYCAKSQSAKGGYDYWGQGTQVTVSS”, the “polyreactivity (PSR sort gate)” value is “high polyreactivity”.

For the sequence “QVQLVESGGGLVQAGGSLRLSCAASGRIFNYNAMGWYRQAPGKERELVAAIDWSGGRTYYADSVKGRFTISRDNAKNTVYLQMNSLKPEDTAVYYCNTVGYSLRLRTGGYWGQGTQVTVSS”, the “polyreactivity (PSR sort gate)” value is given as “high polyreactivity”.

On to “QVQLVESGGGLVQAGGSLRLSCAASGRIFNYNAMGWYRQAPGKERELVATITRGGNTYYADSVKGRFTISRDNAKNTVYLQMNSLKPEDTAVYYCNAAWWKVSYVRQKYYYWGQGTQVTVSS”, for which the “polyreactivity (PSR sort gate)” value is reported as “high polyreactivity”.
